Experimental data as given in US12168677B2, “Proteins for the treatment of epithelial barrier function disorders” (Genevive, Inc., priority 2017, dated 2024).

B1: SG-15: 400 amino acid protein (SEQ ID NO:1) encoded by the genome of Eubacterium eligens (protein, listed as Eubacterium eligens)
chain: EYTEIRTASELVEAAKSASGNYKLMTDIDMTGVEWTPWDFSGTFDGNGHSILNLSVKTVSKKTMKTYDGNRKEYKTYGAGFFGVLTGAKVTGLDIYGARIEITTTEPCFAAPIAGLADDSDISDCIIKDTYVSLTDSAKMWGTGGIAGFGSGNLDNITTDVTLVCVDTDAAVRDEQFMGGAYAAGFLNIRNCSITIDGYDSDHGYVHDGGLVGMYMVYPLELSKTYQGEVLNNKVKGMITFFEDNTDRRAYCQANMGEVMNWTYAYSGFTSDFKRNETYDYSVTLLPEMCSNPSYTDVVTEATASDFGYTTHTCSTCGYTYSDTYTIHEHKVDSYSVVKEAASTDKKDGIEAGTCSLCNQTVYREYAANVVTDDNTQATDNKASGTAVKKGMKESTAVFA
B2: SG-16: 119 amino acid protein (SEQ ID NO:9) encoded by the genome of Eubacterium eligens (protein, listed as Eubacterium eligens)
chain: MTGCSGSKEPDNKTSVDYTVVENADLPEELKKLIESKKDKVMRLTYTTKDYTYVVAGYGTRETSGYSIKVNDVYTGDNALYIDLNLIGPAAGEAVNEVETYPVIVLKMERREESVVFKM
B3: SG-18: 267 amino acid protein (SEQ ID NO:19) encoded by the genome of Clostridium bartlettii sp. nov. (protein, listed as Clostridium bartlettii)
chain: EVDSSKEQATSKDEKQVVVATSVAITEILDRLGVEVSGVPQTSYELPESAKGATEIGSPMNPDMEIIKSLNPTDVICVDTLGSDFEKQFEENNINADFYNLSNVDGLKETIAALGEKFNKQDKANEILDEIKEVENKVNSNKKSDDKILVLFGAPGSVMVATDKSYIGNLVELAGGNNIFSNATSSFTQINLEEIIKLNPDKILVMTHAVPEAAKKSVEEELSKDLWKNVNAVKNNDITYLENGYFGMSANLQIVEAVEKLGDILYE
B4: SG-17: 327 amino acid protein (SEQ ID NO:13) encoded by the genome of Eubacterium eligens (protein, listed as Eubacterium eligens)
chain: CNSKIDVKYDYNVEDYVQLGQYENISVQVDKTSIENELIESKIKQDVEDNTTYTEVDRGAIASDQILVTYTATSSGASLSGLTNTDGKTMILGTDTLGLELDELDQALYGMTPGQTKILIVDIPEDYSSDLYKGTRVVFELTMQTVAQANVPMITNAYVKEAFGYDTVEEYRQSIKESLETDINSKVENKIQEDVLSSLQDTFKISSYPDSLMEETRSRLETSIGFYADFSNLSKDEYCQKQYGLSFDDFVKKSVVQQLIMEAIVKDRNMTMREYDYKGSLDDFAADNGYSNADTFVEKFGKDKIVKAMLVQKAQDYVIEHANISYK

Legend:
TNF-α = TNF-α production by monocytes in co-culture TEER assay (Luminex); assay type: cell-based, human; details: pre-incubated 6 hours prior to HK E. coli; basolateral supernatant
Experimental: (§1) Production of the cytokines TNF-α, IL-23, and IL-10 by monocytes was measured in the tissue culture supernatant from the basolateral chamber of the co-culture TEER assay performed in Example 1B. Following TEER readings, the supernatants were centrifuged at 10,000 g for 5 minutes at 4° C. to remove cell debris. Luminex analysis was performed according to the manufacturer's instructions (Magpix instrument and xPonent software version 4.2; Luminex Corporation (Austin, TX)). Luminex analysis was performed to determine the […] concentration of TNF-α and IL-23 produced by monocytes. Luminex analysis utilizes a bead-based system for quantification of multiple cytokines from a single sample. Like an ELISA, Luminex beads are coated with a capture antibody, and incubation with samples allows the target to bind to the capture antibody. Beads are washed and incubated with a fluorescently labeled detection antibody for quantification of bound target. Cytometric analysis is used to differentiate bead populations, which are loaded with differential fluorescent dyes, and to quantify cytokine levels by measuring detection antibody signal. TNF-α, IL-23, and IL-10 production in untreated cells and cells pre-incubated with SG-15 for 6 hours prior to HK E. coli treatment was normalized to pg/ml concentrations elicited by HK E. coli only, which was set to 1.0. […] The graphs in FIGS. 2A, 2B and 2C each represent data pooled from an individual experiment (n=3).

IL-23 = IL-23 production by monocytes in co-culture TEER assay (Luminex); assay type: cell-based, human; details: for IL-23 production normalized to HK E. coli only (set to 1.0): pre-incubated 6 hours prior to HK E. coli, basolateral supernatant
Experimental: as §1

[1] = system: LPS binding protein (LBP); test: DSS model: LPS binding protein in serum (ELISA); assay type: in vivo, C57BL/6 mice; details: 50 nmoles/kg i.p. b.i.d.; 2.5% DSS 6 days
Experimental: Eight-week old C57BL/6 mice were housed 5 animals were cage and given food and water ad libitum for 7 days. Following the 7-day acclimation period, treatments were initiated concurrently with addition of 2.5% DSS to the drinking water. […] The mice were treated with 2.5% dextran sodium sulfate (DSS) in their drinking water for 6 days. Treatments were continued with SG-15 or […]-GLP2 twice a day (b.i.d.) in the morning and evening (every 8 and 16 hr) with i.p. injections at 50 nmoles/kg. Fresh 2.5% DSS drinking water was prepared every 2 days. SG-15 was also assessed for its effects on the levels of LPS binding protein (LBP) in the blood of the DSS animal with and without SG-15 administration. LPS binding protein (LBP), which has been linked to clinical disease activity in subjects with inflammatory bowel disease, was also measured by ELISA in the serum of mice tested in the DSS model described in Example 1E. […] Results are shown in FIG. 5, and are presented as mean±SEM. The graph in FIG. 5 represents data pooled from the 2 individual experiments (n=20).

DSS model: body weight = assay type: in vivo, C57BL/6 mice; details: 50 nmoles/kg i.p. b.i.d.; 2.5% DSS 6 days; percent change from day 0
Experimental: Eight-week old C57BL/6 mice were housed 5 animals were cage and given food and water ad libitum for 7 days. Following the 7-day acclimation period, treatments were initiated concurrently with addition of 2.5% DSS to the drinking water. […] The mice were treated with 2.5% dextran sodium sulfate (DSS) in their drinking water for 6 days. Treatments were continued with SG-15 or […]-GLP2 twice a day (b.i.d.) in the morning and evening (every 8 and 16 hr) with i.p. injections at 50 nmoles/kg. Fresh 2.5% DSS drinking water was prepared every 2 days. Body weight was measured daily from mice included in the DSS model described in Example 1E. Percent change from starting weight on day 0 was determined for each mouse. […] Weight loss in mice treated with SG-15 at day 6 was similar to weight loss observed with […]-GLP2. The graphs in FIG. 6 represent data pooled from the 2 individual experiments (n=20).

DSS treated mice [2] = test: DSS model: colon length; assay type: in vivo, C57BL/6 mice; details: 50 nmoles/kg i.p. b.i.d.; 2.5% DSS 6 days
Experimental: Eight-week old C57BL/6 mice were housed 5 animals were cage and given food and water ad libitum for 7 days. Following the 7-day acclimation period, treatments were initiated concurrently with addition of 2.5% DSS to the drinking water. […] The mice were treated with 2.5% dextran sodium sulfate (DSS) in their drinking water for 6 days. Treatments were continued with SG-15 or […]-GLP2 twice a day (b.i.d.) in the morning and evening (every 8 and 16 hr) with i.p. injections at 50 nmoles/kg. Fresh 2.5% DSS drinking water was prepared every 2 days. Colon length was measured in mice included in the DSS model described in Example 1E. […] The graph in FIG. 8 represents data pooled from the 2 individual experiments (n=20).

DSS treated mice [3] = test: DSS model: colon weight to length ratio; assay type: in vivo, C57BL/6 mice; details: 2.5% DSS 6 days
Experimental: Eight-week old C57BL/6 mice were housed 5 animals were cage and given food and water ad libitum for 7 days. Following the 7-day acclimation period, treatments were initiated concurrently with addition of 2.5% DSS to the drinking water. […] The mice were treated with 2.5% dextran sodium sulfate (DSS) in their drinking water for 6 days. Treatments were continued with SG-15 or […]-GLP2 twice a day (b.i.d.) in the morning and evening (every 8 and 16 hr) with i.p. injections at 50 nmoles/kg. Fresh 2.5% DSS drinking water was prepared every 2 days. Colon length and weight were measured in mice included in the DSS model study described in Example 1E. […] Accordingly, the ratio of tissue weight to length can be used as a readout of DSS induced tissue damage. SG-15 administration to DSS treated mice (Example 1E) reduced the colon weight to length ratio elicited by DSS (DSS=3.9 mg/mm, DSS+SG-15=3.5 mg/mm; p=0.13). […] However, no difference was observed between treated with SG-15 as compared to treatment with […]GLP2. The graph in FIG. 9 represents data pooled from the 2 individual experiments (n=20).

[4] = DSS+SG protein, 50 nmoles/kg i.p. b.i.d., unit not given

| Molecule | TNF-α production normalized to HK E. coli only (set to 1.0) (TNF-α) | IL-23 production compared with control cells treated with media only (IL-23; cells treated with SG-15 and HK E. coli) | IL-23 production normalized to HK E. coli only (set to 1.0) (IL-23) | LBP in serum compared to DSS mice treated with vehicle [1] | Body weight compared to vehicle-treated DSS mice (DSS model: body weight) | Colon length / colon shortening elicited by DSS treatment (DSS treated mice [2]) | Colon weight to length ratio, SG protein compared with Gly2-GLP2 (DSS treated mice [3]; 50 nmoles/kg i.p. b.i.d.) | Colon weight to length ratio (DSS treated mice [3]; DSS+SG-15, 50 nmoles/kg i.p. b.i.d.) [mg/mm] | Colon weight to length ratio (DSS treated mice [3]; [4]) | Impact on LBP concentration compared to control peptide Gly2-GLP2 [1] |
| --- | --- | --- | --- | --- | --- | --- | --- | --- | --- | --- |
| B1 | 0.91 | no significant difference | 0.57 | significant reduction in LBP | significantly improved body weight | reduced colon shortening | no difference | 3.5 | – | – |
| B2 | 1.29 | – | 1.06 | No change in LBP | – | slightly improved colon shortening | – | – | 4.1 | – |
| B3 | 1.06 | – | 1.10 | – | did not alter body weight | did not reduce colon shortening | – | – | 3.3 | – |
| B4 | 0.73 | – | 1.10 | significant reduction in LBP | did not alter body weight | did not reduce colon shortening | – | – | 3.14 | greater impact on LBP concentration |
